Measured values from article PMC3077382, “14-3-3 Proteins Regulate Exonuclease 1–Dependent Processing of Stalled Replication Forks” (PLoS Genetics, 2011).

Molecular target: T1, Exo1-Myc (S. cerevisiae, UniProt P39875 1-702)
T1 construct: Saccharomyces cerevisiae Exonuclease 1 (Exo1); C-terminal Myc tag added to the endogenous EXO1 gene; also called yeast Exo1; source: S. cerevisiae (W303-1A background), endogenous EXO1 gene tagged; in whole cell extract; immunoprecipitated from control or HU-treated cells for Far Western; not shown: Myc, C-terminal, kept
T1 sequence (looked up): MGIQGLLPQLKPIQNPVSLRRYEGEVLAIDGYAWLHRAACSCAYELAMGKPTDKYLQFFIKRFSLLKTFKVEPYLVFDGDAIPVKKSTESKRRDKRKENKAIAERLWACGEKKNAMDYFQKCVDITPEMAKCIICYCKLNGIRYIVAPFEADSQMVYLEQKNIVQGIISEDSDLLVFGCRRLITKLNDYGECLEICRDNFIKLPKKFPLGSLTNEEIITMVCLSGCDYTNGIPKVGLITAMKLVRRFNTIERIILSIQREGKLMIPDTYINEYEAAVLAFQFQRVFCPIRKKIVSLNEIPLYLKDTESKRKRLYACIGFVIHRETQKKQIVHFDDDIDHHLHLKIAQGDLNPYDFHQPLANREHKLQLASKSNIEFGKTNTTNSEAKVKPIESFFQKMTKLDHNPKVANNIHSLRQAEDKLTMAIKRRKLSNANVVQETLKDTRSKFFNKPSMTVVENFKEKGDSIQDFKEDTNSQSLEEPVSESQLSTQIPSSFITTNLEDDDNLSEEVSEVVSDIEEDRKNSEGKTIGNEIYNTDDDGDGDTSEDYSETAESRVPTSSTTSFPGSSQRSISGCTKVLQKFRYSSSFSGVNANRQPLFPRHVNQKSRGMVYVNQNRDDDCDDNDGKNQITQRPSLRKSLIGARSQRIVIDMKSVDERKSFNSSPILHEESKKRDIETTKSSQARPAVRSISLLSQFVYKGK
Assay: far-Western, overlay or dot blot; Exo1-Myc immunoprecipitated from untreated or HU-treated yeast cells, resolved by SDS-PAGE, transferred to PVDF and denatured/renatured; probed with purified GST-Bmh1 (2 µg)
Conditions: both partners purified

B1: GST-Bmh1 (natural protein, S. cerevisiae, UniProt P29311 1-267, looked up)
chain: MSTSREDSVYLAKLAEQAERYEEMVENMKTVASSGQELSVEERNLLSVAYKNVIGARRASWRIVSSIEQKEESKEKSEHQVELICSYRSKIETELTKISDDILSVLDSHLIPSATTGESKVFYYKMKGDYHRYLAEFSSGDAREKATNASLEAYKTASEIATTELPPTHPIRLGLALNFSVFYYEIQNSPDKACHLAKQAFDDAIAELDTLSEESYKDSTLIMQLLRDNLTLWTSDMSESGQAEDQQQQQQHQQQQPPAAAEGEAPK
notes: Saccharomyces cerevisiae 14-3-3 protein Bmh1; also called purified recombinant GST-Bmh1
B1: binds.
